tested on: Escherichia coli TOP10; experiment: shrunken log2 fold change of peptide-encoding DNA abundance (4.5 h post-induction vs induction); higher = less antimicrobial activity (less host growth inhibition); conditions: time post-induction: 4.5 h; library: site-saturation at positions 5, 18, 19, 20
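Further: peptides expressed intracellularly from a pBAD plasmid library in pooled LB shake-flask culture, induced with 0.3% L-arabinose, DNA abundance read by NGS, three biological replicates, DESeq2 with apeglm shrinkage.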

Row | Sequence | shrunken log2 fold change
1 | RRIRYRPPRLPRPRPRPCLNPRP | -0.216
2 | RRIRKRPPRLPRPRPRPCPKPRP | 0.29
3 | RRIRTRPPRLPRPRPRPTLHPRP | -0.126
4 | RRIRQRPPRLPRPRPRPEFHPRP | -0.0296
5 | RRIRHRPPRLPRPRPRPKPLPRP | 0.127
6 | RRIRLRPPRLPRPRPRPAFGPRP | 0.359
7 | RRIRARPPRLPRPRPRPIRHPRP | -0.0279
8 | RRIRNRPPRLPRPRPRPKQEPRP | 0.0268
9 | RRIRTRPPRLPRPRPRPEFHPRP | -0.351
10 | RRIRQRPPRLPRPRPRPGHYPRP | -0.00181
11 | RRIRYRPPRLPRPRPRPNVMPRP | 0.0307
12 | RRIRFRPPRLPRPRPRPGFLPRP | -0.296
13 | RRIRLRPPRLPRPRPRPEKEPRP | 0.263
14 | RRIRTRPPRLPRPRPRPKQRPRP | 0.166
15 | RRIRVRPPRLPRPRPRPEKCPRP | 0.0903
16 | RRIRFRPPRLPRPRPRPRQGPRP | 0.259
17 | RRIRARPPRLPRPRPRPQKYPRP | -0.363
18 | RRIRRRPPRLPRPRPRPSPMPRP | 1.54
19 | RRIRPRPPRLPRPRPRPTNEPRP | 0.0205
20 | RRIRERPPRLPRPRPRPYMAPRP | -0.137
21 | RRIRVRPPRLPRPRPRPEHGPRP | -0.219
22 | RRIRWRPPRLPRPRPRPCFVPRP | -0.144
23 | RRIRKRPPRLPRPRPRPWGFPRP | 0.0651
24 | RRIRRRPPRLPRPRPRPPKAPRP | -0.00754
25 | RRIRRRPPRLPRPRPRPSSRPRP | -0.00108

Row | Sequence | shrunken log2 fold change
26 | RRIRARPPRLPRPRPRPDAFPRP | 0.879
27 | RRIRGRPPRLPRPRPRPGDMPRP | 0.511
28 | RRIRDRPPRLPRPRPRPENRPRP | -0.0191
29 | RRIRHRPPRLPRPRPRPWISPRP | -0.0102
30 | RRIRGRPPRLPRPRPRPCHCPRP | -0.017
31 | RRIRWRPPRLPRPRPRPIWIPRP | -0.186
32 | RRIRDRPPRLPRPRPRPVVPPRP | 0.0405
33 | RRIRERPPRLPRPRPRPWPIPRP | -0.679
34 | RRIRNRPPRLPRPRPRPALYPRP | -0.125
35 | RRIRGRPPRLPRPRPRPCIAPRP | 0.797
36 | RRIRTRPPRLPRPRPRPQGPPRP | 0.0175
37 | RRIRERPPRLPRPRPRPIHRPRP | 0.0155
38 | RRIRNRPPRLPRPRPRPFCVPRP | -0.0352
39 | RRIRGRPPRLPRPRPRPTYHPRP | 0.0704
40 | RRIRSRPPRLPRPRPRPNKFPRP | -0.36
41 | RRIRHRPPRLPRPRPRPRAFPRP | -0.146
42 | RRIRARPPRLPRPRPRPLEYPRP | -0.498
43 | RRIRVRPPRLPRPRPRPCCCPRP | 0.0615
44 | RRIRHRPPRLPRPRPRPIVTPRP | -0.388
45 | RRIRYRPPRLPRPRPRPEQQPRP | -0.0122
46 | RRIRDRPPRLPRPRPRPDCAPRP | 1.41
47 | RRIRYRPPRLPRPRPRPGNQPRP | -0.252
48 | RRIRERPPRLPRPRPRPSELPRP | 0.0285
49 | RRIRSRPPRLPRPRPRPVISPRP | 0.141
50 | RRIRHRPPRLPRPRPRPAQSPRP | -0.0382

Row | Sequence | shrunken log2 fold change
51 | RRIRYRPPRLPRPRPRPPNNPRP | -0.708
52 | RRIRFRPPRLPRPRPRPWSYPRP | -0.48
53 | RRIRKRPPRLPRPRPRPCEDPRP | 0.563
54 | RRIRCRPPRLPRPRPRPWDNPRP | -0.291
55 | RRIRRRPPRLPRPRPRPRVQPRP | 0.445
56 | RRIRCRPPRLPRPRPRPNDKPRP | -0.46
57 | RRIRKRPPRLPRPRPRPKIWPRP | 0.475
58 | RRIRFRPPRLPRPRPRPWFHPRP | -0.714
59 | RRIRERPPRLPRPRPRPNPEPRP | -0.0358
60 | RRIRRRPPRLPRPRPRPWGPPRP | 0.0858
61 | RRIRRRPPRLPRPRPRPLWQPRP | 0.318
62 | RRIRWRPPRLPRPRPRPQPTPRP | 0.334
63 | RRIRARPPRLPRPRPRPFMQPRP | -0.0876
64 | RRIRNRPPRLPRPRPRPSPTPRP | 0.156
65 | RRIRTRPPRLPRPRPRPEIGPRP | -0.103
66 | RRIRHRPPRLPRPRPRPVKMPRP | -0.0874
67 | RRIRARPPRLPRPRPRPWFHPRP | -0.301
68 | RRIRIRPPRLPRPRPRPYVFPRP | -0.0874
69 | RRIRFRPPRLPRPRPRPVRTPRP | 0.227
70 | RRIRARPPRLPRPRPRPFAGPRP | 0.0859
71 | RRIRFRPPRLPRPRPRPNCGPRP | -0.0249
72 | RRIRKRPPRLPRPRPRPGVPPRP | 0.364
73 | RRIRVRPPRLPRPRPRPCNNPRP | 0.0786
74 | RRIRRRPPRLPRPRPRPIISPRP | -0.155
75 | RRIRNRPPRLPRPRPRPSKAPRP | -0.0014

Row | Sequence | shrunken log2 fold change
76 | RRIRCRPPRLPRPRPRPGKKPRP | -0.0838
77 | RRIRPRPPRLPRPRPRPFEPPRP | 0.232
78 | RRIRPRPPRLPRPRPRPFLAPRP | 0.0316
79 | RRIRYRPPRLPRPRPRPWLLPRP | -1.51
80 | RRIRFRPPRLPRPRPRPNYEPRP | -0.774
81 | RRIRYRPPRLPRPRPRPEEIPRP | -0.00965
82 | RRIRYRPPRLPRPRPRPEYTPRP | -0.542
83 | RRIRYRPPRLPRPRPRPTDVPRP | -0.122
84 | RRIRQRPPRLPRPRPRPGGNPRP | -0.0842
85 | RRIRWRPPRLPRPRPRPREYPRP | 0.0698
86 | RRIRSRPPRLPRPRPRPMWIPRP | -0.0694
87 | RRIRERPPRLPRPRPRPRIPPRP | -0.269
88 | RRIRFRPPRLPRPRPRPDVAPRP | 0.239
89 | RRIRWRPPRLPRPRPRPKECPRP | 0.236
90 | RRIRHRPPRLPRPRPRPAWQPRP | 0.0329
91 | RRIRCRPPRLPRPRPRPDGLPRP | -0.0371
92 | RRIRPRPPRLPRPRPRPFISPRP | -0.706
93 | RRIRNRPPRLPRPRPRPMTVPRP | -0.12
94 | RRIRWRPPRLPRPRPRPFPSPRP | -0.1
95 | RRIRDRPPRLPRPRPRPIHDPRP | -0.58
96 | RRIRLRPPRLPRPRPRPWELPRP | -0.00192
97 | RRIRHRPPRLPRPRPRPMQPPRP | 0.172
98 | RRIRCRPPRLPRPRPRPKHVPRP | -0.155
99 | RRIRWRPPRLPRPRPRPQRKPRP | 0.46
100 | RRIRRRPPRLPRPRPRPPGTPRP | 0.705

Row | Sequence | shrunken log2 fold change
101 | RRIRNRPPRLPRPRPRPYPFPRP | 0.0247
102 | RRIRNRPPRLPRPRPRPVLDPRP | -0.299
103 | RRIRDRPPRLPRPRPRPYWAPRP | -0.0312
104 | RRIRLRPPRLPRPRPRPWQHPRP | -0.319
105 | RRIRYRPPRLPRPRPRPLGQPRP | -0.261
106 | RRIRYRPPRLPRPRPRPLQKPRP | -0.0364
107 | RRIRVRPPRLPRPRPRPCWRPRP | 0.0437
108 | RRIRIRPPRLPRPRPRPQQMPRP | -0.0189
109 | RRIRDRPPRLPRPRPRPAKSPRP | -0.0126
110 | RRIRPRPPRLPRPRPRPTEDPRP | -0.18
111 | RRIRDRPPRLPRPRPRPSVFPRP | 0.423
112 | RRIRQRPPRLPRPRPRPAHQPRP | 0.0203
113 | RRIRERPPRLPRPRPRPVPMPRP | -0.041
114 | RRIRVRPPRLPRPRPRPMCCPRP | -0.0676
115 | RRIRARPPRLPRPRPRPNCTPRP | 0.172
116 | RRIRTRPPRLPRPRPRPVPDPRP | -0.0687
117 | RRIRGRPPRLPRPRPRPPYWPRP | 0.355
118 | RRIRWRPPRLPRPRPRPKWVPRP | -0.00843
119 | RRIRMRPPRLPRPRPRPRIPPRP | 0.199
120 | RRIRTRPPRLPRPRPRPIPVPRP | -0.412
121 | RRIRYRPPRLPRPRPRPLVDPRP | -0.289
122 | RRIRQRPPRLPRPRPRPNKAPRP | -0.041
123 | RRIRNRPPRLPRPRPRPYCPPRP | -0.187
124 | RRIRRRPPRLPRPRPRPWKIPRP | -0.11
125 | RRIRWRPPRLPRPRPRPPVIPRP | -0.189

Row | Sequence | shrunken log2 fold change
126 | RRIRSRPPRLPRPRPRPLIPPRP | -0.324
127 | RRIRNRPPRLPRPRPRPFTCPRP | -0.215
128 | RRIRPRPPRLPRPRPRPMPPPRP | 0.194
129 | RRIRYRPPRLPRPRPRPFMTPRP | -2.5
130 | RRIRCRPPRLPRPRPRPQTKPRP | 0.146
131 | RRIRNRPPRLPRPRPRPNRMPRP | -0.385
132 | RRIRTRPPRLPRPRPRPYPTPRP | -0.374
133 | RRIRFRPPRLPRPRPRPKTSPRP | -0.0999
134 | RRIRKRPPRLPRPRPRPMWCPRP | -0.113
135 | RRIRFRPPRLPRPRPRPYWYPRP | -0.675
136 | RRIRKRPPRLPRPRPRPKMEPRP | 0.368
137 | RRIRNRPPRLPRPRPRPMFAPRP | -0.239
138 | RRIRKRPPRLPRPRPRPPAAPRP | 0.932
139 | RRIRKRPPRLPRPRPRPADSPRP | 0.00593
140 | RRIRDRPPRLPRPRPRPRTAPRP | 0.445
141 | RRIRNRPPRLPRPRPRPGYSPRP | -0.42
142 | RRIRMRPPRLPRPRPRPHTCPRP | -0.0858
143 | RRIRTRPPRLPRPRPRPWCYPRP | -0.291
144 | RRIRDRPPRLPRPRPRPHNMPRP | -0.135
145 | RRIRRRPPRLPRPRPRPFKGPRP | 0.0185
146 | RRIRSRPPRLPRPRPRPCKSPRP | 0.00889
147 | RRIRHRPPRLPRPRPRPQCRPRP | -0.0351
148 | RRIRDRPPRLPRPRPRPHTAPRP | -0.0443
149 | RRIRTRPPRLPRPRPRPFPTPRP | 0.105
150 | RRIRSRPPRLPRPRPRPGFMPRP | -0.101

Reference: the supplement of paper PMC9112550, “Optimization of the antimicrobial peptide Bac7 by deep mutational scanning” (BMC Biology, 2022)
